# Measured values published in the RNAGym collection of RNA variant scans (doi:10.7554/elife.80360).
# B1: Hairpin Ribozyme (parent)
# chain: GUCCUCUUUCACGUGCGCGUGAAAGAGAGAAGUGAACCAGAGAAACACACGUUGUGGUAUAUUACCUGGUA
# Variants of: B1
# Assay: self-cleavage, relative activity (ratio to wild type); higher = more cleavage; co-transcriptional
row,Variant,self-cleavage
1,A30G G57A,0.0803
2,A30G G57U,0.0464
3,A28C A39C,0.238
4,A28C A39U,0.127
5,A30C A31U,0.129
6,G29C U58C,0.159
7,G29A U62G,0.21
8,G29U G56C,0.162
9,A28G A31U,0.0204
10,A28G A31G,0.416
11,G29C U67A,0.179
12,G29U A41C,0.217
13,A28C C48G,0.128
14,A28G U33C,0.155
15,A30C A61C,0.251
16,A30C G56U,0.157
17,A28U A59U,0.185
18,A28U A59C,0.0961
19,A30C U55A,0.146
20,A30C U55C,0.161
21,A30C A43U,0.128
22,A30G G40A,0.0732
23,A28U A61G,0.0909
24,G29U U33G,0.0639

row,Variant,self-cleavage
1,G29A A35U,0.0646
2,G29C A45G,0.106
3,G29C A45U,0.122
4,G29U A45G,0.136
5,G29A U33A,0.203
6,G29C U70A,0.162
7,G29C U70G,0.119
8,A28C G51A,0.517
9,A28C G51C,0.336
10,G29A U52G,0.0639
11,G29A U52A,0.115
12,A30C C66U,0.169
13,A28C A31U,0.107
14,A28C A31G,0.333
15,A30G A31G,0.157
16,A28C G29C,0.204
17,A28C G29U,0.0915
18,A28U C46A,0.0952
19,A28G U52C,0.763
20,A28G U52G,0.948
21,A30G A43C,0.1
22,A28G U55C,0.53
23,A28G U55A,0.208
24,A28C G42A,0.29

row,Variant,self-cleavage
1,A28C G42C,0.109
2,G29U U58G,0.168
3,A30G U58C,0.0836
4,A28G A36G,1.16
5,G29A G34C,0.248
6,A28C A45U,0.134
7,A28C A45G,0.201
8,A28U G68U,0.272
9,A28U G68A,0.153
10,A28U G68C,0.151
11,A28C C46A,0.191
12,A28C C46U,0.151
13,A28C C46G,0.0967
14,G29C A35G,0.178
15,A30C C37A,0.0529
16,A30G C38U,0.21
17,A28G C46A,0.199
18,A30G A41G,0.112
19,A30C U53C,0.203
20,A30C U53G,0.284
21,A30G G54C,0.178
22,G29A C38G,0.101
23,A28G G32C,0.119
24,A28U U67G,0.201

row,Variant,self-cleavage
1,A30G A61C,0.109
2,A28C A59U,0.14
3,A28C A59G,0.117
4,A28U G32U,0.258
5,A28C U53A,0.39
6,A28C U53G,0.213
7,A30C U33C,0.1
8,A30C U33G,0.0878
9,G29C G40U,0.171
10,G29U U52G,0.0467
11,G29U A39G,0.0986
12,G29U A39U,0.0632
13,G29A G69U,0.113
14,G29A G69C,0.14
15,G29U G69A,0.105
16,G29U G69C,0.0911
17,A28G C50U,0.439
18,A28G C50G,0.467
19,G29U G32A,0.169
20,G29U G32U,0.164
21,G29C U52G,0.0183
22,G29C U52A,0.129
23,A28U G40C,0.0881
24,A28G A43U,0.123

row,Variant,self-cleavage
1,A28G A43G,0.158
2,G29C C37U,0.121
3,G29C U55G,0.0655
4,A28U A39C,0.337
5,A30G C50U,0.0809
6,A30G C50A,0.0824
7,G29U U70C,0.127
8,G29A C65U,0.145
9,G29C A64G,0.124
10,G29C A64C,0.133
11,G29C G34C,0.116
12,G29A G56A,0.157
13,G29A G57C,0.109
14,A30C A44C,0.0571
15,A28U U58A,0.36
16,A28U A36U,0.276
17,A28G G68C,0.115
18,G29U C50A,0.113
19,G29U C50G,0.184
20,G29C C50U,0.144
21,G29C C50G,0.0763
22,A28U G57C,0.113
23,A28U A49U,0.111
24,A28C U52A,0.492

row,Variant,self-cleavage
1,A28C,0.497
2,A28U,0.656
3,A28G,1.12
4,A28G U62A,0.287
5,A28G U62G,0.183
6,A30C U70G,0.0924
7,A30G G51C,0.199
8,G27U U60C,0.383
9,G27U U63A,0.0592
10,G27U U63G,0.243
11,G29C G68U,0.125
12,G29U U60G,0.17
13,G27U U62A,0.137
14,A28C U67G,0.184
15,A28C U67A,0.135
16,A28G U70C,0.859
17,A28C C37U,0.396
18,A28G A71U,0.771
19,A28G U63G,0.223
20,A28G U63A,0.141
21,A28G U63C,0.138
22,G29C G69C,0.0776
23,A30C U63C,0.0293
24,A28G U67C,0.276

row,Variant,self-cleavage
1,G29A C66G,0.0855
2,A28G G51U,1.14
3,G29C A30U,0.0915
4,G29C A30G,0.218
5,A28U U53A,0.845
6,G29C U62A,0.13
7,G29C U62G,0.18
8,A28U A35U,0.505
9,A28G G42U,0.375
10,G29A U63C,0.0755
11,A28U G54U,0.3
12,A30C G34U,0.815
13,G29U U55G,0.062
14,G29U U55A,0.0925
15,G29U U55C,0.0858
16,A28U G51U,0.485
17,A28U G51C,0.49
18,G29C A31U,0.0962
19,A30C G32A,0.145
20,A30C U52A,0.214
21,A30C U52C,0.133
22,A30C G57U,0.266
23,G29C U53G,0.0421
24,G29C U53A,0.116

row,Variant,self-cleavage
1,G29U A64G,0.0899
2,A30G G68U,0.169
3,G29A A47C,0.107
4,G29A A47U,0.107
5,G29C A36G,0.18
6,A28U U63C,0.113
7,G29U A49G,0.173
8,G29U A49C,0.14
9,G29U A59U,0.104
10,G29U A59G,0.0822
11,G29C A43G,0.261
12,A28C G57A,0.119
13,A30C A36U,0.122
14,A28U C65U,0.153
15,A28U C65G,0.151
16,A30C U58G,0.103
17,A30C U58A,0.134
18,A28G A35G,0.864
19,A28G A35C,1.27
20,A28G G34A,1.25
21,A28U A71G,0.673
22,A28U A31U,0.138
23,A30G C37A,0.192
24,G29A A49C,0.179

row,Variant,self-cleavage
1,A28U U60A,0.493
2,G29A U53A,0.109
3,G29U A43G,0.134
4,G29A G32A,0.181
5,A28U A45G,0.121
6,G29C A39U,0.0768
7,A28G A45G,0.242
8,A28C U60A,0.448
9,A28U C66G,0.302
10,A28U C66U,0.207
11,A28C G34C,1.5
12,G29A U55A,0.13
13,G29A U55G,0.143
14,A28G G29U,0.0365
15,A28G G54U,0.541
16,A28G A49U,0.118
17,A28G A49G,0.637
18,G29U G34C,0.0691
19,A30G C65G,0.204
20,A30G C65A,0.148
21,A28U G29A,0.0881
22,G29A A61C,0.163
23,G29A A61G,0.125
24,A28G C48A,0.143

row,Variant,self-cleavage
1,A28G C48G,0.0684
2,A28G G40A,0.426
3,A30C U62C,0.0331
4,A30C U60G,0.181
5,G29C U60C,0.164
6,G29C U60A,0.139
7,A28U A44U,0.0894
8,A28U G56U,0.0609
9,A28U G56C,0.151
10,A28U G56A,0.174
11,G29A A71C,0.295
12,G29A A71G,0.112
13,A28C G32C,0.121
14,A28C G32U,0.0817
15,A30C C48U,0.17
16,A28C U55C,0.216
17,A28C U55G,0.217
18,A30C A47U,0.105
19,A30C A49U,0.154
20,A30C A49G,0.123
21,A30C A49C,0.0983
22,A28U G69U,0.0991
23,A28U G69A,0.137
24,A28C G56C,0.101

row,Variant,self-cleavage
1,A28C A47G,0.0559
2,A28C A47C,0.0848
3,A28G A64C,0.165
4,A28G A64U,0.159
5,A30C G69A,0.0574
6,A30C G69C,0.318
7,A28C C66U,0.227
8,A28C C66G,0.197
9,A28G U60A,0.661
10,G29C G56A,0.0331
11,G29C G56C,0.0545
12,G29C A59G,0.0639
13,G29C A59C,0.205
14,G29U U62C,0.0779
15,G29U U62A,0.103
16,A30C A45U,0.0541
17,A30C A45G,0.194
18,A30G A36U,0.152
19,A28C C38G,0.194
20,A28C C38U,0.218
21,G29U U63G,0.103
22,A30C C50U,0.118
23,G29U C46U,0.124
24,G29U C46A,0.089

row,Variant,self-cleavage
1,G29C A44C,0.126
2,A30G C46U,0.236
3,A28G G69A,0.48
4,A28U A41G,0.35
5,A28U A41U,1.31
6,A30C C46A,0.0713
7,A30C C46G,0.0771
8,G29C C48G,0.0534
9,A30C G54A,0.107
10,A30C G54C,0.173
11,A28G C66U,0.654
12,A28G C66G,0.0858
13,A28G A61U,0.182
14,A28G A61C,0.434
15,A28G A59G,0.181
16,A28G A59C,0.114
17,G29A G42A,0.139
18,G29C A61U,0.0566
19,G29C A61G,0.135
20,A30G U53G,0.157
21,G29C A49G,0.178
22,G29C A49U,0.109
23,G29C U33A,0.0541
24,G29U G68U,0.176

row,Variant,self-cleavage
1,G27U U58A,0.153
2,G27U U58G,0.225
3,G29U U53C,0.197
4,A28C A61U,0.272
5,G27U U70A,0.172
6,A28C A41U,1.12
7,A28U A47C,0.172
8,A28G A44G,0.222
9,G29U C37G,0.0458
10,G29C U63G,0.0807
11,A30G A45G,0.17
12,G29U A44G,0.142
13,G29U G54A,0.104
14,G29U A31U,0.151
15,G29U A31G,0.167
16,G29U A31C,0.2
17,A28U U55G,0.159
18,A28U U55C,0.161
19,G29C C65A,0.204
20,G29C C65G,0.209
21,G29A C50G,0.187
22,G29U A61C,0.14
23,G29A G40U,0.0938
24,A28C A43C,0.125

row,Variant,self-cleavage
1,A28C A43U,0.148
2,G29U C65U,0.105
3,A28U U70A,0.422
4,G29U A36C,0.101
5,G29U A36G,0.275
6,A28C G68C,0.309
7,G29A U58C,0.202
8,G29A U58G,0.13
9,G29A G68A,0.125
10,G29A G68C,0.143
11,G29A G68U,0.306
12,A30G A59U,0.305
13,G29C G54C,0.0908
14,G29C G54A,0.1
15,A28G A30G,0.218
16,A28G A30C,0.0631
17,A30C A41G,0
18,A28C U63G,0.176
19,A28C U63C,0.251
20,G29C A47C,0.15
21,G29C A47G,0.0858
22,A28U G42A,0.167
